Measured values reported in the supplement of paper PMC9170038.

System: MS2 coat protein
Assay: apparent KD of MS2 coat protein; designed switch direction (-1 OFF switch, 1 ON switch): 1; higher = weaker reporter binding
How it was run: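 Normalised cluster fluorescence was curve-fitted, and each design's median over clusters is its apparent KD. Before this, SNAP-549-labelled MS2 coat protein was titrated from 0.7 or 1.5 nM, doubling to 3 µM, over RNA switches transcribed on Illumina chips by stalled E. coli RNA polymerase. Titrations had no input, 200 uM small-molecule ligand, or an oligonucleotide input, and steps lasted 0.8–1.5 h (lowest) to 10–20 min (highest).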

[1] = input ligand: microRNA oligo, concentration not stated
[2] = Eterna round: R95, input ligand: microRNA oligo, concentration not stated
[3] = Eterna round: R95, input ligand: FMN 200 uM
[4] = Eterna round: R95, input ligand: none

For “CUGAGCAAUCGAGGAUAUCACGUCGAAUAGACGUGAGAAGGCGAUCAUAACAUGAGGAUCACCCAUGUAUUACAUGAAGCUCAG [SSNG1/4-A1] (Eterna round: R96, puzzle: Same State NG 1)”, the “apparent KD of MS2 coat protein” value (input ligand: FMN 200 uM) was 11.7 nM, the “apparent KD of MS2 coat protein” value [1] was 12.8 nM and the “apparent KD of MS2 coat protein” value (input ligand: none) was 16.2 nM.
With “CUGAGCAAUCUAGGAUAUCACGUCGUUUAGACGUGAGAAGGAGAUCAUAACAUGAGGAUCACCCAUGUAUUACAUGAAGCUCAG [SSNG1/7-A3] (Eterna round: R96, puzzle: Same State NG 1)” the “apparent KD of MS2 coat protein” value (input ligand: FMN 200 uM) was 13.1 nM, the “apparent KD of MS2 coat protein” value [1] was 15.7 nM and the “apparent KD of MS2 coat protein” value (input ligand: none) was 18.8 nM.
For “CUGAGCAGUCAAGGAUAUCACGUCGAAUAGACGUGAGAAGGUGAUUAAUACAUGAGGAUCACCCAUGUAAUACAUGAAGCUCAG [SSNG1/11-A1] (Eterna round: R96, puzzle: Same State NG 1)”, the “apparent KD of MS2 coat protein” value (input ligand: FMN 200 uM) was 25.6 nM, the “apparent KD of MS2 coat protein” value [1] was 33.5 nM and the “apparent KD of MS2 coat protein” value (input ligand: none) was 46.6 nM.
In the case of “CUGAGCAGUCAAGGAUAUCACGUCGUUUAGACGUGAGAAGGUGAUUAAUACAUGAGGAUCACCCAUGUAAUACAUGAAGCUCAG [SSNG1/11-A3] (Eterna round: R96, puzzle: Same State NG 1)”, the “apparent KD of MS2 coat protein” value (input ligand: FMN 200 uM) was 20.9 nM, the “apparent KD of MS2 coat protein” value [1] was 30.9 nM and the “apparent KD of MS2 coat protein” value (input ligand: none) was 42.5 nM.
For “CUGCUCGUGUGAGGAUAUGCCGCCGUUUCGGCUGCAGAAGGUGCUACGUAACAUGAGGAUCACCCAUGUCUCUGUUGUUUCGUU [salish99_SSNG1_r04_949] (Eterna round: R96, puzzle: Same State NG 1)”, the “apparent KD of MS2 coat protein” value (input ligand: FMN 200 uM) was 37.4 nM, the “apparent KD of MS2 coat protein” value [1] was 35.2 nM and the “apparent KD of MS2 coat protein” value (input ligand: none) was 34 nM.
For “CUGCUCGUGUGAGGAUAUGCCGCCGUUUCGGCUGCAGAAGGUGCUACGUUACAUGAGGAUCACCCAUGUCUCUGUUGUUUCGUG [salish99_SSNG1_r04_944] (Eterna round: R96, puzzle: Same State NG 1)”, the “apparent KD of MS2 coat protein” value (input ligand: FMN 200 uM) was 20.7 nM, the “apparent KD of MS2 coat protein” value [1] was 15.8 nM and the “apparent KD of MS2 coat protein” value (input ligand: none) was 22.8 nM.
For “CUGUGUUGCGGGCAGGAUAUGUAUUGGAGUACAUGAGGAUCACCCAUGUGCGGGUGUUUCACCCGACAGAAGGGCCAAUCGCGAC [JL-ss2-3.22 ViennaUCT mod] (puzzle: Same State 2)”, the “apparent KD of MS2 coat protein” value [2] was 76.7 nM.
In the case of “GAAAGCAACGGAGGAUAUUCGCGUACGUUGGACGAAGAAGGCCGACAUGAGGAUCACCCAUGUACGAAUCACGCCAUAGCAUUA [Eternabot solution 12] (Eterna round: R96, puzzle: Same State NG 1)”, the “apparent KD of MS2 coat protein” value (input ligand: FMN 200 uM) was 23.9 nM, the “apparent KD of MS2 coat protein” value [1] was 16.4 nM and the “apparent KD of MS2 coat protein” value (input ligand: none) was 19.7 nM.
For “GAAAGCAUGGGAGGAUAUAGCCUCUAUGAAAGGCUAGAAGGCCCUGGCCACAUGAGGAUCACCCAUGUGAAAUAAAUAGAAGAA [Raarceza] (Eterna round: R96, puzzle: Same State NG 1)”, the “apparent KD of MS2 coat protein” value (input ligand: FMN 200 uM) was 28.9 nM, the “apparent KD of MS2 coat protein” value [1] was 96.9 nM and the “apparent KD of MS2 coat protein” value (input ligand: none) was 218 nM.
With “GAAAUAUAACAUGAGGAUCACCCAUGUACAUUGGUACGGCGGAAGGAUAUGAAAGACAUGGUCAAUUAGAAGGUCCUAUCAAAA [Eternabot solution 50] (Eterna round: R96, puzzle: Same State NG 3)” the “apparent KD of MS2 coat protein” value (input ligand: FMN 200 uM) was 102 nM, the “apparent KD of MS2 coat protein” value [1] was 114 nM and the “apparent KD of MS2 coat protein” value (input ligand: none) was 139 nM.
“GAAUAACAUGAGGAUCACCCAUGUAAUAUAAUGGGAGGAUAUCUGAAUUAAUUAUAUUAAGGAGAAGGCCUAUAUG [Mat - Same State 1 - Mod of Eli - D54] (puzzle: Same State 1)” was tested, and the “apparent KD of MS2 coat protein” value [3] was 51.6 nM, the “apparent KD of MS2 coat protein” value [2] was 204 nM and the “apparent KD of MS2 coat protein” value [4] was 260 nM.
With “GACAAUCUAUCUGAGGAUAUCAUGAGAAGAACAUGAGGAUCACCCAUGUGCAGGAAAACUGCAUAUGAGAAGGCAGAUAGAUUGA [Mat - Same State 2 - Mod - D16] (puzzle: Same State 2)” the “apparent KD of MS2 coat protein” value [3] was 43.7 nM, the “apparent KD of MS2 coat protein” value [2] was 1600 nM and the “apparent KD of MS2 coat protein” value [4] was 1820 nM.
In the case of “GACCGCGAGGGAGGAUAUGGAGCCUUAUUGGCUCCAGAAGGUCCAUAAGGGACAUGAGGAUCACCCAUGUGGGUUGAAGCGGUC [Fiskers NG1ss - 36] (Eterna round: R96, puzzle: Same State NG 1)”, the “apparent KD of MS2 coat protein” value [1] was 108 nM.
“GAGAAUCUAUCUCAGGAUAUCAUGUCAAAGACAUGAGGAUCACCCAUGUACCAGGAAACUGGUUAUGAGAAGGGAGAUAGAUUCA [Mat - Same State 2 - Mod - D35] (puzzle: Same State 2)” was tested, and the “apparent KD of MS2 coat protein” value [3] was 103 nM, the “apparent KD of MS2 coat protein” value [2] was 26.2 nM and the “apparent KD of MS2 coat protein” value [4] was 224 nM.
“GAGAGAUGAUUAGGAUAUACGGUGAUAAUGAUAGUAGAAGGAAUUGACAUGAGGAUCACCCAUGUGGGAAUAAUCCAGAGAGAG [Parity 22 - Jieux - Same State NG 1] (Eterna round: R96, puzzle: Same State NG 1)” was tested, and the “apparent KD of MS2 coat protein” value (input ligand: FMN 200 uM) was 100 nM, the “apparent KD of MS2 coat protein” value [1] was 127 nM and the “apparent KD of MS2 coat protein” value (input ligand: none) was 162 nM.
In the case of “GAGGAUGAUUUACAGGAUAUAUAGGAGAUGACAUGAGGAUCACCCAUGUAAGAGAGAGGAGGGAGAUAGAAGGGUAAGGGAUGUG [JR_SS2_Sub42] (puzzle: Same State 2)”, the “apparent KD of MS2 coat protein” value [3] was 44.3 nM, the “apparent KD of MS2 coat protein” value [2] was 42.2 nM and the “apparent KD of MS2 coat protein” value [4] was 59.5 nM.
For “GAGGGCGGAAACAACAUGAGGAUCACCCAUGUUGCCGAAAGGCAGGAUAUCCGGCGAAAGCAGAAGGAGAAGGGUCGAAAAGAA [AK SSNG3-V2-41] (Eterna round: R96, puzzle: Same State NG 3)”, the “apparent KD of MS2 coat protein” value (input ligand: FMN 200 uM) was 20.7 nM, the “apparent KD of MS2 coat protein” value [1] was 20 nM and the “apparent KD of MS2 coat protein” value (input ligand: none) was 24.1 nM.
In the case of “GAGUAGUUAAAAGGAUAUUGAUUAUUGUAGGAUCAAGAAGGUUUUAACAUGAGGAUCACCCAUGUAGGACUAUUCCUGUGAAAA [Parity 92 - Jieux - Same State NG 1] (Eterna round: R96, puzzle: Same State NG 1)”, the “apparent KD of MS2 coat protein” value [1] was 10.9 nM.
“GAGUAGUUAAAAGGAUAUUGAUUAUUGUAGGAUCAAGAAGGUUUUAACAUGAGGAUCACCCAUGUAGGACUAUUCCUGUGUAUC [Parity 90 - Jieux - Same State NG 1] (Eterna round: R96, puzzle: Same State NG 1)” was tested, and the “apparent KD of MS2 coat protein” value [1] was 12 nM.
“GAGUAGUUGAAAGGAUAUGCAUUGUUAUAGAAUGCAGAAGGUUCUAACAUGAGGAUCACCCAUGUAGGACUAUUCCUGUGUAUC [Parity 80 - Jieux - Same State NG 1] (Eterna round: R96, puzzle: Same State NG 1)” was tested, and the “apparent KD of MS2 coat protein” value [1] was 7.83 nM.
With “GAGUAGUUGAAAGGAUAUUGAUUAUUGUAGGAUCAAGAAGGUUCUAACAUGAGGAUCACCCAUGUAGGACUAUUCCUGUGUAUC [Parity 89 - Jieux - Same State NG 1] (Eterna round: R96, puzzle: Same State NG 1)” the “apparent KD of MS2 coat protein” value [1] was 8.63 nM.
For “GAGUAGUUGGGAGGAUAUGCAUUGUUAUAGAAUGCAGAAGGUUUUAACAUGAGGAUCACCCAUGUAGGACUAUUCCUGUGUAUC [Parity 71 - Jieux - Same State NG 1] (Eterna round: R96, puzzle: Same State NG 1)”, the “apparent KD of MS2 coat protein” value (input ligand: FMN 200 uM) was 12.9 nM, the “apparent KD of MS2 coat protein” value [1] was 11.9 nM and the “apparent KD of MS2 coat protein” value (input ligand: none) was 15.6 nM.
With “GAGUGGAAGUAAGGAUAUAUAAUGAUAAUCACAGUAGAAGGUACUAACAUGAGGAUCACCCAUGUAGGACUAUACCAGAGAGGG [Parity 44 - Jieux - Same State NG 1] (Eterna round: R96, puzzle: Same State NG 1)” the “apparent KD of MS2 coat protein” value [1] was 12.3 nM.
With “GAGUGGCAGUUAGGAUAUGUAGUGAUAAUGAUAACAGAAGGAACAGACAUGAGGAUCACCCAUGUAGGACUAAUCCAGAGAGAG [Parity 35 - Jieux - Same State NG 1] (Eterna round: R96, puzzle: Same State NG 1)” the “apparent KD of MS2 coat protein” value (input ligand: FMN 200 uM) was 26.2 nM, the “apparent KD of MS2 coat protein” value [1] was 25.7 nM and the “apparent KD of MS2 coat protein” value (input ligand: none) was 34.2 nM.
With “GAGUGGCGGUUAGGAUAUACAGUGAUAAUGAUAGUAGAAGGAACUGACAUGAGGAUCACCCAUGUAGGACUAAUCCAGAGAGAG [Parity 31 - Jieux - Same State NG 1] (Eterna round: R96, puzzle: Same State NG 1)” the “apparent KD of MS2 coat protein” value (input ligand: FMN 200 uM) was 43.6 nM, the “apparent KD of MS2 coat protein” value [1] was 21.7 nM and the “apparent KD of MS2 coat protein” value (input ligand: none) was 33.7 nM.
“GAUCGUUUGAUAGGAUAUCGCUAUACAUGAGGAUCACCCAUGUUUACCACGCUGGUUUUUCAUACCGAGAAGGAUUCUGAUGAC [salish99_SSNG02_r04_007] (Eterna round: R96, puzzle: Same State NG 2)” was tested, and the “apparent KD of MS2 coat protein” value (input ligand: FMN 200 uM) was 21.5 nM, the “apparent KD of MS2 coat protein” value [1] was 15.5 nM and the “apparent KD of MS2 coat protein” value (input ligand: none) was 26.6 nM.
In the case of “GAUUAACAUGAGGAUCACCCAUGUCGUUUUAUGGGAGGAUAUACGUGGACCGUAGUCCGCGUAGAAGGCCUAAUUG [JL-ss1-3.23 janelle mod] (puzzle: Same State 1)”, the “apparent KD of MS2 coat protein” value [2] was 97.3 nM.
For “GCAUUACAUGAGGAUCACCCAUGUCUCUAAAGUCGAGGAUAUGGGCAGGUUAUAUCCGAACCAGAAGGCGAAUUGC [SS1 Teenbexe 10] (puzzle: Same State 1)”, the “apparent KD of MS2 coat protein” value [3] was 138 nM, the “apparent KD of MS2 coat protein” value [2] was 244 nM and the “apparent KD of MS2 coat protein” value [4] was 198 nM.
For “GCCAACUUAUGAGGAUAUGGCACCUUAUUGGUGCCAGAAGGCAUGUGAAUUCACAUGAGGAUCACCCAUGUAUUAUAGUUGGCA [Fiskers NG1ss - 20] (Eterna round: R96, puzzle: Same State NG 1)”, the “apparent KD of MS2 coat protein” value (input ligand: FMN 200 uM) was 32.2 nM, the “apparent KD of MS2 coat protein” value [1] was 221 nM and the “apparent KD of MS2 coat protein” value (input ligand: none) was 356 nM.
With “GCCCAUAGUAUAUGGAUACAAGCUUUUUGACAUGAGGAUCACCCAUGUACUCGUCUUAUGUGCAGUCCGUAGACUGC [JL-shm-2.20 Brourd mod] (puzzle: Sensor for hsa-mir-208a)” the “apparent KD of MS2 coat protein” value [3] was 26.8 nM and the “apparent KD of MS2 coat protein” value [2] was 15.8 nM.
“GCCGCAAGGGCAGGAUAUGGGUCCAGAGUGCAAAUGCACUCCGGUACAUGAGGAUCACCCAUGUCCCAGAAGGGCCCAAGCGGC [Bilaatdi] (Eterna round: R96, puzzle: Same State NG 2)” was tested, and the “apparent KD of MS2 coat protein” value (input ligand: FMN 200 uM) was 12.8 nM, the “apparent KD of MS2 coat protein” value [1] was 144 nM and the “apparent KD of MS2 coat protein” value (input ligand: none) was 163 nM.
